The domain aggregation screens of Martell et al. (2025)

Assay: soluble fraction after stress (log2 fold change); higher = more stays soluble; pooled small domains, quantitative proteomics
Conditions: stress: 50 degC
In short: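 Pooled custom libraries of small protein domains were measured in a high-throughput format, with quantitative proteomics as the read-out. Each library was stressed at 50°C. Aggregation propensity is given as the base-two logarithm of the fold change in how much of each protein stays soluble after the stress. Higher values mean a larger share of the protein remains in solution.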

Sequence	soluble fraction (log2)
HMGPVRRDLEINGRMVPLTIREHARATRITLRIEPGGQALRLTIPPGLPTREVDSFLTRHHGWLMTKLAHI	-1.79
HMRSVPNVAGLGMDGAAFQLGKAGFAIGTITPADDPKAVVGSIQRTEPAAGTVADRDTVVNLFQV	0.0939
HMSSIGERISDVRKARGYTQDQLAERIHVSRQTISHWENERALPDFESIKQLSQVLGYDFSS	-0.00328
HMRARTQYWPFVEEKAAELKLPLHLVNVEPLFGEQKVVVHYTANGRIDFRELVHLLARRFHARIEMR	0.212
HMFTFEDMDKFESLLTTGLTDVQRRIYSLVTHDGKEYDLIAETLGISVEAVRMHMSRARKKIRENYKKID	-2.42
HMGNLVDGINKKLTHVRDSLPEGYTLDEFKSAFQQQYPAAYDAYEGDKGKQFDKWLGNVIQSLPKK	0.161
HMKILKQLEAIIEKEGLNESAKQFYLREISELDKEKQQEIINLVDKMEQAGFKNNLASAFSEVTEDIPQF	-0.0195
HMEVAASEQRDNLWALARRVLSGEQYDVLYLRYVEDFSVAQIADVVGKTQTHVKVLLFRGRNNLGSRLRS	0.199
HMEHETTQLELNAPGQRLDAALALALPDTSRAQIQQWIKQGLVTDQAGTALLQASLKLKSPLNVVLQRPI	0.178
HMALMLGGLIVYLNTTAPRDDIDLIELSKDTKAMAAFGNKLASPDYNGKQFALDWHELSRDEIMSKYFS	-0.987
HMRRPRGVFNLVPGKRFGFITPDGGGEDVFAHLANVRAGHVAEDRNAVEYGIGRGPDGRDQAVDIVPMP	-0.128
HMSQIQIKLDQAIMQLPEKQRFVFMLRYFEELPYEKIAQITETSIGGAKANFHQALKKMQEIIQ	-2.96
HMPFESEMKHWIHLFAHELNLKVSDKYTQKIIEIFGNNFSEIFNEMSKSSLVSSNEKDLLNALEKSGNIH	-0.678
HMQIYSQEIYDAQKVLKELGLYTSDLDGLNGPGTKRALRNFQSKSGLNADGVLGPLTKSALDKGEESYITV	0.0375
HMPRVLSSYTLTLRHQPTAEAVALVRTLLSPAGSVEVKEDGRTLVVRDELAALSRIVGALRSFDH	-0.404
HMVLVLPGEMIHVQVIDEGKEMGQGVGYLDDGTMVVVENGLRHIGRAIDVQVTKVLQTNAGRMIFGQPIL	-0.137
HMGSLKEKIVLLEKLYQQNPSEEIKLLLINTYQLNHQYIQARKLFFTLTPEQKEKLPLASEFLIFL	-0.871
HMELQYSQEIEEAQKILENLGLYRGEIDGINGINTKSAIREFQRKSGLVVDGILGPNTTNALSKGSDAYIT	0.094
HMDGIGLRVRMIREGVGLTQKQLAEHLGMQRTALVQVEAGSRKLSASELIGVARFFNITVEQFLDPEK	-3.37
HMKNKRERLGIISEILRMQVIGSQEELLDILRAKGYDVTQATLSRDLKVLKVAKTPLSNGAYKYVLPPQ	0.0519
HMITASNYFIEVERIGIETLPETLKKGHDLVVKSTSNGTNWANYQTSEGIKKVIDLYFQKLNEYANTV	-0.749
HMGLNVSYRMDGENVVETIIFSGATMIRTVTPTGTMTIKTIENGSTSTAKVNADYSVYKKIYEAQY	-2.59
HMFGSKDVKRAIEDYAAAMSSQPRALSAPQRKVLIRHLATSGLLQLRGAAKIVADELGISRASVYNALKV	-0.436

Sequence	soluble fraction (log2)
HMATSLTEQEKLIFGLLKKQSPIELSSLKEQAGLSNKKWDKAIKGLSTQQLAKVTKTENGLFVHLLQ	0.148
HMEDYYKILGVQSNSNPDDIKKAYRKLSLKHHPDRGGDASEFKKINEAYQTLGTPEKRKMYDMQQNN	-0.0117
HMPNGEAYQRFTYENDILEGRFEEWDSLGTDIVKGDYTAGVRHKKWLYYDSEGRRDKFVFLDMDSI	0.0763
HMAEPLMTQIVEIEYADAEGLRENLEQFLTRLDEKTLLGSVLVDRHTNSLIIQAVRSDLERMLPLIETLDR	-0.731
HMVKLSVGDIVQFAGGPHYVSSSAAKPASSPTAGPAKVTMIYQGAKHPYHIVHTTSASTVWGWVDADKVVK	-0.245
HMSGKGEFDQLLRSGEYVQAFQRANANGNVTLRRQQLLNLARHQAASGVGSGAIESLSTIQRI	0.0926
HMIYKLTLLRDLPEAKAGFDFYLRGGLASHDGEEWFSWVTREPIYARLYWLYVEKREEWVLVEETDI	-4.46
HMAGNNTATKEIAELLIAKGADVNAMNLSPPGREIGGMTPLDMAILGNRNEIADLLRKHGGRTQKELKAE	0.356
HMGFSLEQFGTDPDLKKIVENAFERIITASEGRIFKSDFSSNNSALPLEIFSFLIAVILLKLSGMN	-0.142
HMKEYRKEGHLYFVTEDRNNEIYLWDFTDKPKHEFKEIITSVELQKVAKEGAMLQYKNGKYELYS	-0.171
HMELEENTERVLNILIENDIISENDIAEKLEVKINGARKALYKLKEVGFVEYTKERDEEKKWWYIYFWKLN	-0.0109
HMVAQEVPYSTFVMRLDRNEVDAVKIIDGNEIEGTFKSPNGDLVQFKTLIPYQDTELMPLLKQKGVRISGS	0.386
HMNFKNMIDSLSGILFKKDPSAAIIDIGGVRLKVFITVGSYEQLPAKGEQVEILTYLHVKEDILNLYG	-0.242
HMLERPLKLKSHYVSAINEKVAVQFQAGEERKSIMGTLTEVNQDTIVIDDRGSVTEIPFKSIIRAKTVF	0.258
HMRIAGIDIPDNKRGEVALTYIFGIGRSSSKKILKSAGIDSDKQIGKWTDDESNLVRKLIRDEYTIEGDL	-0.412
HMIDRADLWEALRKLPEDTLKLFSLHFEKGMTHDEISKHTDIPVGTVKTKLRRGLIEARKLAREF	-0.795
HMQGWREWDYSADLYINARVGGKIEPTENSPISRVYELDEPVSVVAFTSTRYFKLSSGDYIFAEYLSAQKV	-1.2
HMLSDEEKMAALNEQARQRGFTISPGVLPYLITHYQRDMHSLSMILDALDRYSLQTKRTITLPLLHDLLQQ	-1.06
HMDDIVFPNPTKNQINVSIDGLKNIYNLSGKLLISTNDKIIDVSILKAGVYFINTNEQFYKFVK	-1.3
HMINVVDEVIKHLETNIISGFWAPGQKIDSEATLSKQLNVSRASIHTAIQQLIATGVLESFQGKGTFVRS	-0.624
HMRQSDIAAAFRESILRSSKGFQYLHTRDFVTALRRRGIHLSEVEANSWIAREKTYFVDSALDHSENRLWI	-1.6
HMNAVYAEERRAYILAALEKRGTVHSYELAEQMGVSRETIRRDIMELSNRGLLVKTHGGAIST	-0.686
HMKVTGITDDILQRLKQQKGYLMLSDKSSPDEIYAAFGVSKKVFKQAIGTLFKQRQIIIEEQGIRLAN	-0.39

Sequence	soluble fraction (log2)
HMDSIDIDAETKSLGPNAPQIIKGIKEWGQGLVAKGVWSDQDFEEFKVFAATANGINALNKVRKFY	-0.154
HMPRYQQIARQLKTAIEHGELKPGARLPSSRTWSQELGISRSTVESAYTELVAQGWLERRGQAGTFVSAQL	-0.749
HMTEKIVFNIDGQTGRIDKILADFMTGTSRSQIQAWVKDGNLMVNDKAVKSNYKVQDGDLLELTIPEPEQ	-0.171
HMDAINYEDFQLLIKQRGSFKVAFEDIMFSTKVAIEKKEDFYDFVTKLIDNGFNNMAYNYLEGFQD	-2.09
HMAIELIDLIKNPETAPFSKLKYLKWMPEAEVTGFFNNLFQLNVTARETGDWSTVDKFLEDEGDRIAAQVA	-0.138
HMNNQIFGLKFRQLRKQQHITLAKAAAGITSRQSLGNWETGKGELAFEKVLLLLKKINVQPIDFLESSIS	-3.67
HMPFTLDGVNEGSRNDQAARMSGYLISKNLNMDFIKFFMQSWNRQNSPPLSQREINSVVDNVKRTHDRKNK	-1.18
HMQETALANFETNEGVQKVKQYVQENVPSLRGSNIVGVWTSYTPEGLTNYRTRFLTQDGQFVEVNLAYQ	0.036
HMDVADITGTRKAAILLLTMDEELSKELLKEFERHEIEAIGKEIANIKYIPENIVKQVHSEFLKNINKS	-0.212
HMSILPGVYRHYKGNHYQVFYLAKHSETLEDMVVYQALYGERGIWVRPASMWNETVDDQGKQVKRFTYI	-0.24
HMIESFQNGLVEHDQFTRPNPWVTPNFSKIEVPSILLSGKHADIDLWKHQNSIENTKKNRPDLFKNYLKKN	0.211
HMNILDPTVMKNILDKNHEEFIAIYESAPLGQKTIINSMVFDKRLNGENVDANILMYLQNKTNIDYINIEP	-0.167
HMDQFMLQSAWLRAVQHVMKHTDDVGTQFAEEARRMHYGEADERPIRGQATSDEARALHDEGIEVMALPI	-0.303
HMNNLSEELNVTFPRTRDQLLNILHYVQHKYGYISKVSMQEIGNHIKMPVSEIYGTVTSYSEFKI	-1.54
HMFGIEIPEEAGKLQDYTLTDDDLEGGNTLKEIQFPQGARVVIIRRDDKFIIPDGSVELQSGDQLLIIYGE	-0.578
HMTIATLGERIRKLRKERGLTLAELAGDKLSKGMLSLIENNRAKPSMESLEYIAKRLGVEPAELLE	0.176
HMPVFSLTPRELEILEWMSTPNTYRQIAAQLSVSEETVRSHAKNILEKMRQPNRAQAVLAAVKMGLIKL	-0.819
HMPRKYFPFYFTFRETAQTMPPRLRAVFYEAIIEYGTTGKEPTLPKSIAGYWPLVKPTLDSAKAHYDAG	-0.831
HMESRETGLPVVIISDGRILQDNLKRRGLDLSWLDKQLAEHGYPDFRDVFLLTVDEAGGVYFVPRE	0.333
HMNGTEAIRRYIDQFASKHATTPRMLKLNERKQLIQELKNNGLLEIKKAVETVAQHLGISRASAYLYVKE	-0.303
HMQAKNGTVTGSVVNVRGGAGTQYAVKGKASRGTKVTILGQQSSWLNVRLDNGVTGWIHADYVQISE	0.463
HMFWEGYLAARREQFLKDQQVLLGNEFRSNPDFWLEVASKEWAVVEERLSTGADVSEEVQETMGLDF	-2.16
